Data taken from PMC13198613.

Target: N1-MPP (recombinant neuraminidase: N1 globular head domain from A/Michigan/45/2015 (H1N1) fused to the measles virus phosphoprotein tetramerization domain, with hexahistidine tag) (measles virus | influenza A virus A/Michigan/45/2015 (H1N1))
Assay: SEC; […], pH 7.5, 0.4 mL/min, room temperature; […]

N1-MPP (recombinant neuraminidase: N1 globular head domain from A/Michigan/45/2015 (H1N1) fused to the measles virus phosphoprotein tetramerization domain, with hexahistidine tag) (enzyme)
stoichiometry N: 4
